The nanobody polyreactivity screen of Harvey et al. (2022)

Assay: yeast display, Sf9 membrane polyspecificity reagent, FACS + sequencing; frameworks hold sequencing errors
In short: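 Galactose-induced (36–48 hours) yeast carrying a synthetic nanobody display library were exposed to 10% biotinylated, detergent-solubilized Sf9 membrane reagent at 4 °C for 1 hour. FACS followed streptavidin microbead enrichment, using low and high (top ~1%) gates for expression (anti-HA) and reagent binding (streptavidin). Colony PCR, MiSeq 2 × 250 sequencing and CDR-length filtering followed. Labels for polyreactivity reflect the gate of origin.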

Sequence	polyreactivity (PSR sort gate)
QVPLVESGGGLVQAGGSLRLSCAASGSTFYTYAMGWYRQAPGKERELVATISRGGGRTYYADSVKGRFTISRDNAKYTVYLQMISLKPEDTAVYYCAARLYSSSYNSEQYYYWGQGTQVTVSS	high polyreactivity
QVPLVESGVGLVQAGGSLRLSCAASGSTFTIYAMGWYREAPGKERELVAAITWNGGSTYYADSVKGRFTISRDNAKKTVYLQMNSLKPEDTAVYYCADDYYWYWDLYDYWGQGTQVTVSS	high polyreactivity
QVPLVKSGAGFVQAGGILRLSCAASGRIFPFYVNGLARQAAGQERELVATINWSGGSTYYADSVKGRFTISRDNAKNTVYLQMNSLKPADTAVYYCAAAGIGGGGWGQGTQVTVSS	low polyreactivity
QVQFVESGGGLVQAGGSLRLSCAASGSTFQGNAMGWYRQAPGKERELVAAISRSGGRTYYADSVKGRFTISRDNAKNTVYLQMNSLKPEDTAVYYCAADAYTGDIPYWWPWNNEYDYWGQGTQVTVSS	low polyreactivity
QVQHEDSGGCLVQAAGSLSVSCAATGSTFDTYEMGRSRKATGKEMELVAAISSGGGTKYADSVKGRFKISRDNAKNTVYLQMNSLKPEDTAVYYCAADKAVGDSTRYYYWGQGTQVTVSS	low polyreactivity
QVQHEESGGGLVQAGGSLRLICAASGRTFADNAMGWYRQAPGTERELVPSISSVTSTNYADSVKGRFTISRDNAKYTVYFQMNSLKPEDPAVYDCNAYGPIWYTAVLGFGRYYGWTDYWGQGTQVTVSS	low polyreactivity
QVQHEESGGGLVQAGGSLRLSCAASGFTFRGYAMGWYRQAPGKERELVAAISRSGGGTYYADSVKGRFTISRDNAKNTVYLQMNSLKPEDTAVYYCAAVYRRTRSWKFDYWGQGTQVTVSS	high polyreactivity
QVQHEESGGGLVQAGGSLRLSCAASGRIFGAYPMGWSRQATGKERELVAAITSRGGNTYYADSVKGRFTISRDNAKNTVYLQMNSLKPEDTAVYYCAARHDKRRQYYVGQSAFDYWGQGTQVTVSS	low polyreactivity
QVQHEESGGGLVQAGGSLRLSCAASGRTFLQYAMGWYRQAPGKERELVDAITTSGGDTYYSDSVKGRFTISRDNAKNTVYLQMKSLKPEDTAVFYCNADFRVYIPHVPYLVDFYYWGQGTQVTVSS	low polyreactivity
QVQHEESGGGLVQAGGSLRLSCAASGSIFYDNGMGWYRPAPGKERELVAAISRGGTTNYADSVKGRFTISRDKAKNTVYFQMNSLKPEDTAVYYCNADTRFTYWGSWYDYWGQGTQVTVSS	low polyreactivity
QVQHEESGGGLVQAGGSLRLSCAASGSIIAYNAMGWYRQAPGKERELVAAITDSGGSTFDADSVKGRFTFSRDYGMITVYLQMNSLIPEDTAVYYCATSGDRLVWGQGTQVTVSS	low polyreactivity
QVQHEESGGGLVQAGGSLRLSCASSGLIFKFSAMGWYRQAPGKERELVAAITSRGGSTYYADSVKGRFTISRDNAKNTVYFQMNSLKPEDTEVYYCAADVRTQHYNAQYDYWGQGTQVTVSA	high polyreactivity
QVQHEETGGGLVQAGGSLRLSCAASGSTYRKNSMGWYRPAPGKERAFVAAISRSGGSTYYADSVKGRFTISRDNAKNTVYLQMNSLKPEDTAVYYCAASYYQHQYSYELGDYWGQGTQVTVSS	low polyreactivity
QVQHEKSRGALVQAGGSLRLSCAASGSTVEKYTMGWYREAPGKVRELVAAISKSGGSTYYADSVKGRFTISRDNAMNTVYLQMNSLNPEDTAVDYCAALQYPRAGFDYWGQGTQVTVSS	high polyreactivity
QVQHGESGGGLVQAGGSLRLTCAASGSIFKYNAMGWYRQAPGKERELDAAISLSGASRSYADSVKGRFTISRVNAKNTVYLQMNSLKPEDTAVYYCNAYYWYYSTRKYYYWGQGTQETVSS	high polyreactivity
QVQHLESGGGLVQAGGSLRLSCAASGFTFGYYAMGWYRQAPGKEREFVATISYGTGSTYYADSVKGRFTISRDNAKNTVYLQMNSLKPEDTAVYYCNADTWPGEYNGYFSGAYDYWGQGTQVTVSS	high polyreactivity
QVQHVESAGGLVQAGGILRLSCAASGRIFYPYAMGWYRQAPGKERELVAAISSSGGSTYYADSVKGRFTISRDNAKNTVSLQMNSLKPEDTAFYYCNKDFQYYPRIFGYWGQGTQVTVSS	high polyreactivity
QVQHVESAGGLVQAGGILRLSCHASGFTIHAYVLGWYRQAPGKERELVAAISSGGSTYYADSVKGRFTISRDNAKNTGYLQMNSLKPEATSVYYCAAAYPYYWHLDFWGQGSQVTVSS	low polyreactivity
QVQHVESAGGLVQAGGSLRLSCAASGITFKVYAMGWYRQAPGKERELVATISRSDAGTSYADSVKGRFTISRDNAKNTVYLQMNSLKPEDTAVYYCAATYVSKKTHTKYDYWGQGTQVTVSS	high polyreactivity
QVQHVESAGGLVQEGGSLRLSCAASGSTSVKYPMGWYRQAPGKERELVAAIRKRGDSTYYADSVKGRFTISRDNAKNTVYLQMNSLKPEDTAVYYCAAQYLRGRGYWGQGTQVTVSS	low polyreactivity
QVQHVESGGALVQAGGSLRLSCAASGRIFSPNAMGWYIQAPGKEWDLVAAISSGGSTYADSVKGRFTISRDNAKNTVYLQMNSLKPEDTAVYYCARTYQWTVAGRYRAYHAGYYWGQGTQVTVSS	high polyreactivity
QVQHVESGGGIVQAGGSLRLSCAASGFTFWYYAMGWYRQAPGKERELVAVINTSGGSTYADSVKGRFTISRDNAKNTVFLQMNSLKPEDTAVYYCNKDFIYGYDAASYRPEYDYWGQGTQVTVSS	low polyreactivity

Sequence	polyreactivity (PSR sort gate)
QVQHVESGGGIVQAGGSLRLSCAASGITFYGNTMGWYRPARGKERELVARISSGGSTNYADSVKGRFTISREKAKNSGYLQMNSLKPEDTAVYYCAVKQYWYIWSGYGYDYWGQGTQVTVSS	high polyreactivity
QVQHVESGGGIVQAGGSLRLSCAASGSTFSGYAMGWYRQAPGKERELVASISSGGRTTYADSVKGRFTISRDNAKNTVYLQMNSLKPEDTAVSYCAKRIRPGYARLYSWGQGTQVTVSS	high polyreactivity
QVQHVESGGGLGQAGGSLRLSCAASGLTFSVYAMGWSRQAPGKERELYAAISYSGVSTYADSEKGRFTISRDNAKNTVYLQMNSLKPEDTAVYYCNARWVREGYRRWYDYWGQGTQVTVSS	low polyreactivity
QVQHVESGGGLLQAGGSLRLSCAASGRIFWINAMGWYIQAPGKERELVATISSGSTSYADSVKGRFTITRDNAKNTVYLQMNSLKPEDTAVYYCAVSLRYTRSGAYDYWGQGTQVTVSS	low polyreactivity
QVQHVESGGGLVHAGGSLRLSCAASGRIFGGYAMGWYRQPPGKDREFVATISRSGSSTYYADSVKGRFTISRDNAKNTVYLQMNSLKPEDTAVYYCAAVIRRPNQWYWWTNSDYWGQGTQVTVSS	high polyreactivity
QVQHVESGGGLVHAGGSLRLSCAASGSIASYAMGWYRHATGKEKELVAGISWSGGSTYYADSVKGRFTISRDNAKNNVYLQMISLKPEDTAVYYCAARRFCPNRDSRMGYWGQGTQVTVSS	high polyreactivity
QVQHVESGGGLVHAGGSLRLSCASSGSIFYPYAMGWYRQAQGKERELVAAIRNGGSTYYTDSVKGRFTISRDNAKNTVYLQMNSLKPEDTAVYYCAASVRRRHPFEYWGQGTQVTVSS	high polyreactivity
QVQHVESGGGLVKAGGSLRLSCAASGFTFGVYAMGWYRLAPGKERELVAAISRRGTSTYYADSVKGRFTISRDNAKNTVYLQMNSLKPEDTAVYYCNARRYQVTVDHWGQGTQVTVSS	high polyreactivity
QVQHVESGGGLVQAGCSLRLCCAASGSTFGGYAMGWSSQAHGNERELVAGITIAVCSTYYADSVKGRFTISRDNAKNTVYLQMNSLKPEDTAVYYCAADGLSWYNYWGPGTQVTVSS	high polyreactivity
QVQHVESGGGLVQAGCSLRLSCAASGSIFSSYAMGWYRQAPGKERELVAAISQSGGDTYYADSVKGRFKISRDNAKNTVYLQMNSLKPEDTAVYYCAASVWFYPMDYWGQGTQVTVSS	low polyreactivity
QVQHVESGGGLVQAGCSLRLSCAASGSIFWRYAMGWSRQAHGKEREFVAAISGSGVRTSYADSVKGRFTISRDNAKNTVYLQMNSLIPEDTAVYYCAARVSYRYTSAAYEYWGQGTQVTVSS	high polyreactivity
QVQHVESGGGLVQAGGRLRLSCAASGSIFGSNAMGWYRQEPGKERELVAVISRRGGSTYYADSVKGRFTISRDNAKNTVYLQMNSLKPEDTAVYYCADRVWYPRYDYWGQGTQVTVSS	high polyreactivity
QVQHVESGGGLVQAGGSHRLSCAASGSIYWWNAMGWYRQAPGKERELVAAISFSGGSTYYADSVKGRFTISRDNAKNTVYLQMNSLKPEDTAVYYCAAEAYDDYDYWGQGTQVTVSS	low polyreactivity
QVQHVESGGGLVQAGGSLLLSCAASGSIFGGNAKGWYRQAPGKERELVAVITSRGGSTYYADSVKGRFTISRDNAKNTVSLQMNSLKPEDTAVYYCNKRYLNRREGTDDYWGQGTQVTVSS	high polyreactivity
QVQHVESGGGLVQAGGSLPLSCAASGFIFTSNSMGWYRQAPGKESEFVAAITSGGITYYADSVKGRFTISRDNAKNTVYLQMNSLKPEDTAVYYCAAVLSYQTPKYYRWRYGYWGQGTQVTVSS	low polyreactivity
QVQHVESGGGLVQAGGSLPLSCAASGITFSKYAMGWYRQAPGKERELVAAITRSGGSTYYADSVKGRFTISRDNAKNTVYLQMNSLKPEDTAVYYCAAKRRERYGQTYGYWGQGTQVTVSS	high polyreactivity
QVQHVESGGGLVQAGGSLRLICAASGITFYFNAMGWYRQAPGKERELVAAISRPGGSTYYADSVKGRFTISRDNAKNTVYLQMNSLKPEDTAVYYCAAEAYFELSGGGLEYGYDYWGQGTQVTVSS	high polyreactivity
QVQHVESGGGLVQAGGSLRLICAASGLTSYYAMGSYRQAPGKEREIVAAIDGSDGNTYYADSVKGRYTISRDNAKNTVYLQMNSLKPEYTAVYYCNAETVLYWWSWENDYWGQGTQVTVSL	high polyreactivity
QVQHVESGGGLVQAGGSLRLICAASGSTFGDNAKGRYREAPGKERELVAVITSDTSTYYADSVKGRFTISRDNAKNTVYLQMNSLKPEDTAVYYCAADWGGLWFWYEYWGQGTQVTVSS	low polyreactivity
QVQHVESGGGLVQAGGSLRLRCAASGTTFSSNAMGWSRHAPGKERELVASITRGGSTSADSVKGRFTISRDNAKNTVYLQMNSLKPEDTAVYYCAKSVTGWRGLWYTPRNYYWGQGTQVTVSS	high polyreactivity
QVQHVESGGGLVQAGGSLRLSCAASESILNRYVMGWYRQATGKERELVCTYYADSVKVRFTISRDNAKNTVYLQMNSLKPEDTAVYYCAADVYLYYAGSRYYYWGQGTQVTVSS	low polyreactivity
